Patent publication US20090304721A1 (MEDLMMUNE, published 2009)
One block for each binder: values may come before it.

Assays:
[1] = biological target: T1, mouse EphA2 expressed on cells (mouse, UniProt Q03145 26-977); test: flow cytometry on tumor cell lines, 1 ug antibody, PE anti-human IgG
T1 construct: whole, on cells
Protocol: (§1) The cells were then washed 2× with cold PBS and stained for 30 minutes at 4° C. with secondary Abs (Phycoerythin conjugated goat-a-human IgG, Biosource). Fluorescence analysis was performed using a FACS Calibur flow cytometer (BD Biosciences).

[2] = biological target: T2, human EphA2 expressed on cells (human, UniProt P29317 24-976); test: flow cytometry on twelve human cell lines, 1 ug primary antibody per 2x10^5 cells, PE goat anti-human IgG; y axis Mean Fl. Shift (%)
T2 construct: whole, on cells; Endogenous receptor on human tumor cell lines and HUVEC
T2 sequence (P29317 24-976): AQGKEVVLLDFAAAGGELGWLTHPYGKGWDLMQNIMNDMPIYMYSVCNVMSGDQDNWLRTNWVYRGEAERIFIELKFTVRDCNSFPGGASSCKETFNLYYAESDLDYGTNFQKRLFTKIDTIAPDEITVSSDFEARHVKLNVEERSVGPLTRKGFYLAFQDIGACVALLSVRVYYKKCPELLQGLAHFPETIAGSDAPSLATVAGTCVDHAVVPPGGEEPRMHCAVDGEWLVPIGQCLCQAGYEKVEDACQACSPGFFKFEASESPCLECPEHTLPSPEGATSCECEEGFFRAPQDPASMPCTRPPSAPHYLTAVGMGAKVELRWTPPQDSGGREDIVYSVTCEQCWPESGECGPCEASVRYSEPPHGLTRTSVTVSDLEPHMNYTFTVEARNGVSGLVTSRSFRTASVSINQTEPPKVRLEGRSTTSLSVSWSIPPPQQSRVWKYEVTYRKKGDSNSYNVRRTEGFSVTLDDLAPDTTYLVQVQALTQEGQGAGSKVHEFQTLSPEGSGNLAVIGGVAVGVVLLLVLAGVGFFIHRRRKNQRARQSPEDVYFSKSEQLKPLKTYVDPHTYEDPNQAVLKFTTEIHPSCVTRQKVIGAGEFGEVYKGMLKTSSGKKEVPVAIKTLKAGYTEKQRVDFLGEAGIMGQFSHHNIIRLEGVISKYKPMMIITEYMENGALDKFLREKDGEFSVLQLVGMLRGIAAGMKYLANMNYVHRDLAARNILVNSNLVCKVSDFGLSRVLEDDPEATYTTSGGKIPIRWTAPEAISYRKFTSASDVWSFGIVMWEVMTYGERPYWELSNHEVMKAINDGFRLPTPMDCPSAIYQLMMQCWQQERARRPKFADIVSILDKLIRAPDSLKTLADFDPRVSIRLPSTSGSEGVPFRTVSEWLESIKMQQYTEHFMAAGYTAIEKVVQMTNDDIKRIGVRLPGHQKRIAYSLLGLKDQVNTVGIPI
Protocol: as §1

[3] = biological target: T2, human EphA2 expressed on cells; test: cell-based or functional assay
[4] = biological target: T2, human EphA2 expressed on cells; test: immunofluorescence of HUVEC cells labeled with 50 ug/ml antibody at 4 C, 0 or 20 min at 37 C, fixed, permeabilized, AlexaFluor 488 goat anti-human IgG, DAPI mounting medium

T1 sequence (Q03145 26-977): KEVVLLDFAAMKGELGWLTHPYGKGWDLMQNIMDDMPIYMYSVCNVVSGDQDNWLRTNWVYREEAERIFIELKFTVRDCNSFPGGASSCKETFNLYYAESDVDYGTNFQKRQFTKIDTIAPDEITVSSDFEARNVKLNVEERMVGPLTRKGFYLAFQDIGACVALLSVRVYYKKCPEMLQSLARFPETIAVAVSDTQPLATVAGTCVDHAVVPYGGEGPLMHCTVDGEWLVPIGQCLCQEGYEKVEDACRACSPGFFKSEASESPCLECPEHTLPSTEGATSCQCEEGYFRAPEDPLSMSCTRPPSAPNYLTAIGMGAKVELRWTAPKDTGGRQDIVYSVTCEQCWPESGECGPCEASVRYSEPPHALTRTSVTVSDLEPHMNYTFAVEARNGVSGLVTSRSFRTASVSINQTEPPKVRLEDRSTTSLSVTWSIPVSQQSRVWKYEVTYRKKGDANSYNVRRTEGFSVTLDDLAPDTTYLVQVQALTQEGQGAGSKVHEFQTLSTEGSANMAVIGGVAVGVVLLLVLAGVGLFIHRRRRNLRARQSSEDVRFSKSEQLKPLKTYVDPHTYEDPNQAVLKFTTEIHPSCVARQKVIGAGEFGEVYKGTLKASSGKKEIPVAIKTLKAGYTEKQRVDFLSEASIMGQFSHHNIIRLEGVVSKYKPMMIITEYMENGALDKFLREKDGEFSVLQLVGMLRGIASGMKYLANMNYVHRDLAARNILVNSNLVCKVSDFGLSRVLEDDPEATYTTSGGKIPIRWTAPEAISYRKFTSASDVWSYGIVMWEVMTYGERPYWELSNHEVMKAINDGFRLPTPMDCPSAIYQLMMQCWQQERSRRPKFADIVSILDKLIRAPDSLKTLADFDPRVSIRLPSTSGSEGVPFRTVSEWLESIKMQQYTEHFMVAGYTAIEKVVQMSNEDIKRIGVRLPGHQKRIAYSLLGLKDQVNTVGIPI

binding result [1]: binds | binding result [2]: binds
B1: anti-EphA2 antibody 1H3 (antibody, V domains shown)
VH: EVQLLESGGGLVQPGGSLRLSCAASGFTFSMYAMRWVRQAPGKGLEWVSVIGPSGGWTPYADSVKGRFTISRDNSKNTLYLQMNSLRAEDTAVYYCARDRGIYGMDVWGQGTTVTVSS
VL: DIQMTQSPSFLSASVGDRVTITCRASQGISSYLAWYQQKPGKAPKLLIYAASTLQSGVPSRFSGSGSGTEFTLTISSLQPEDFATYYCLELNNYPFTFGLGTKVHIK

IC50 (read off the curve), growth inhibition of MCF10-A cells [3]: ~20 nM
B2: 3F2mcMMAF (antibody, V domains shown)
VH: EVQLVESGGGVVRPGGSLRLSCAASGFTVSDYSMNWVRQAPGKGLEWIGFIRNKANAYTTEYSASVKGRFTISRDDSKNTLYLQMNSLKTEDTAVYYCTTYPRYHAMDSWGQGTMVTVSS
VL: AIQLTQSPSSLSASVGDRVTITCRASQSISNNLHWYLQKPGQSPQLLIYYGFQSISGVPSRFSGSGSGTDFTLTISSLQPEDFATYYCQQANSWPLTFGGGTKLEIK
modifications: antibody conjugated to monomethylauristatin F (MMAF) through a maleimidocaproyl-citrulline (mc) linker; attachment residues not stated

binding result [4]: binds
B3: anti-EphA2 antibody 3F2 (antibody, V domains shown)
VH: EVQLVESGGGVVRPGGSLRLSCAASGFTVSDYSMNWVRQAPGKGLEWIGFIRNKANAYTTEYSASVKGRFTISRDDSKNTLYLQMNSLKTEDTAVYYCTTYPRYHAMDSWGQGTMVTVSS
VL: AIQLTQSPSSLSASVGDRVTITCRASQSISNNLHWYLQKPGQSPQLLIYYGFQSISGVPSRFSGSGSGTDFTLTISSLQPEDFATYYCQQANSWPLTFGGGTKLEIK
notes: Humanized agonistic monoclonal antibody
